Laboratory results taken from the supplement of paper PMC10567573.
± gives the standard deviation.

Assay: protein stability index of a GFP-peptide fusion (GPS, HEK-293T) (PSI 1-6); higher = more stable
[1] = treatment: DMSO, c terminus: a fixed tail appended
[2] = treatment: MLN4924 1 uM, 8 h, c terminus: a fixed tail appended
[3] = treatment: DMSO, c terminus: native
[4] = treatment: MLN4924 1 uM, 8 h, c terminus: native
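Further: 24-mer peptide tiles fused after GFP, lentivirally expressed, FACS-sorted into six equal bins by GFP/DsRed ratio, decoded by Illumina sequencing, PSI is the read-weighted mean bin number.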

Sequence	protein stability index [1]	protein stability index [2]	protein stability index [3]	protein stability index [4]
SSSTPLEDEEPQEPNRLETGEAGE [RTN2]	5.51 ± 0.34	5.56 ± 0.3	–	–
SPNRSLPSPGVLCGSARPKPYDPP [ATF4]	3.67 ± 0.19	3.72 ± 0.26	–	–
EAGFHTVEAVAYAPKKELINIKGI [RAD51]	3.01 ± 0.054	3.19 ± 0.29	–	–
VGTGTFGRVHLVKEKTAKHFFALK [PRKX]	2.46 ± 0.15	2.85 ± 0.17	–	–
NAPKFQAENLDVKINENVAAGMRF [PCDHGA10]	3.77 ± 0.61	3.86 ± 0.45	–	–
ELPPSLRAPPPGGWPLQPRVQWG [ZMAT5]	–	–	2.75 ± 0.33	2.82 ± 0.099
QQIQGLISSIEAQLSELRSEMECQ [KRT13]	3.6 ± 0.14	3.44 ± 0.5	–	–
AGGEKGPQAFPMSRLWDSRLRHYL [DNAAF3]	2.12 ± 0.077	2.54 ± 0.065	–	–
RLKTRSWAGERSRRELCSRLQDQ [CDC25B]	–	–	4.02 ± 0.17	4.13 ± 0.15
LYVDSLFFLRGRLDQLLRHVMNPL [PRAME]	3.38 ± 0.99	1.89 ± 0.53	–	–
SLRDKVLQLQKGSDTEAQCEVMQE [INTS3]	5.11 ± 0.23	5.08 ± 0.2	–	–
MRELGLLIFFLFIGVILFSSAVYF [KCNA4]	2.91 ± 0.35	2.03 ± 0.64	–	–
PSELRDLVTQQLPHLMPSNCGLEE [S100A14]	2.71 ± 0.22	3.02 ± 0.18	–	–
LRQAQQNMDPKAAEEEEEEEEEVD [CCND1]	5.64 ± 0.35	5.56 ± 0.33	–	–
EVLLGTPYDLAIDMWSLGCILVEM [DYRK1B]	2.79 ± 0.37	2.96 ± 0.51	–	–
LLEPEVADGGGAPPQGGCGGGGCD [KCNA3]	5.31 ± 0.22	5.35 ± 0.11	–	–
WLPQQNAAYFLLSTNDKTVKLWKV [PPP2R2B]	2.53 ± 0.63	2.6 ± 0.8	–	–
TMKESLTTREIRRQEAIYEMSRGE [NET1]	4.46 ± 0.26	4.68 ± 0.33	–	–
SVTGYSFASDGDSGTCSPLRHSFQ [ADD1]	3.28 ± 0.25	3.11 ± 0.36	–	–
TVNIHRLHVKRSMGWKKACDELEL [ZMYND11]	2.61 ± 0.32	2.77 ± 0.36	–	–
GPRPVQSVVPEMEESGAQLLLEML [CDK4]	3.91 ± 0.66	3.71 ± 0.15	–	–
PSSPGRFTKETTQKNFNNLYGTKG [TRIM29]	4.2 ± 0.27	4.37 ± 0.085	–	–

Sequence	protein stability index [1]	protein stability index [2]	protein stability index [3]	protein stability index [4]
VAVLEQEIKDKDQLVLRTKEAFDT [SASS6]	4.57 ± 0.21	4.67 ± 0.41	–	–
YSCQSKEILRYMKEFTLLLSAANV [P2RY14]	2.4 ± 0.45	2.26 ± 0.31	–	–
IMTDLYYLSQTDGAGDWREKEAKD [FUT8]	3.59 ± 0.42	3.69 ± 0.32	–	–
SGSAVSTAPQQKPIGKISKNKKKK [SRPK2]	4.77 ± 0.43	5.07 ± 0.2	–	–
SEMAEDLCKIGSERSLVLDRLASN [IKZF1]	4.56 ± 0.38	4.73 ± 0.2	–	–
IITRHNLTYEFLQARLRQHYQTI [CLCN6]	–	–	2.75 ± 0.49	2.69 ± 0.46
EGYWLPGDEISIKKKNTNKQEMGT [ZMYND11]	4.7 ± 0.17	4.58 ± 0.084	–	–
KAKQEKVSAQYLSEIEMAKAQRDY [FLOT1]	4.54 ± 0.12	4.64 ± 0.18	–	–
AQIDQYVGLVTNQLSHIKAKIRAK [RTN2]	2.7 ± 0.3	2.75 ± 0.28	–	–
AVVSQMDQEQGSSFQMSEGSEAAV [FAM189A2]	5.46 ± 0.29	5.44 ± 0.17	–	–
GFTKEQQRLGIPKDPRQWTETHVR [ETS1]	3.25 ± 0.58	3.27 ± 0.25	–	–
AHHRSGAQVFPESPESESDHEHEE [GNAS]	5.63 ± 0.24	5.54 ± 0.26	–	–
CSVFPATDAPEQFISQVTVLKYFS [PLK2]	2.49 ± 0.55	2.56 ± 0.5	–	–
KQLEFCFSRENLSKDLYLISQMDS [LARP4]	2.4 ± 0.2	2.33 ± 0.28	–	–
NQYATCRLCGRQVSRGPGVNVGTT [ZBED2]	2.39 ± 0.27	2.58 ± 0.46	–	–
HATALVEAFRLKQQLHARYVLNLL [PPEF2]	2.43 ± 0.38	2.6 ± 0.51	–	–
RPNLETYYERVLKRKTFNKVLGHV [GDAP1]	2.46 ± 0.092	2.47 ± 0.32	–	–
FSVVRRCMKIPTGQEYAAKIINTK [CAMK2D]	2.3 ± 0.1	2.31 ± 0.36	–	–
VALGHAYHPEEFVCSQCGKVLEEG [PDLIM7]	3.93 ± 0.34	4.03 ± 0.11	–	–
LDCEGTTNKMKSPETKQRKLSPLR [KMT2E]	5.39 ± 0.22	5.05 ± 0.37	–	–
EPSWECKFDHIEVRDGPFGFSPII [NETO1]	2.36 ± 0.36	2.3 ± 0.22	–	–
DCEMNSPQVPPSQPLRPWAGGDVP [DYRK1B]	4.32 ± 0.13	4.62 ± 0.15	–	–

Sequence	protein stability index [1]	protein stability index [2]	protein stability index [3]	protein stability index [4]
AWKHGNIHLSAPCIYSEVMEALKL [PCMTD1]	2.28 ± 0.34	2.14 ± 0.33	–	–
CSNLTPNVPNVCRMYCSDLLNPNL [SPACA3]	2.62 ± 0.55	2.42 ± 0.45	–	–
ITHTREEQPHGRSRRREQSSSRNS [ZNF8]	5.33 ± 0.37	5.41 ± 0.13	–	–
DEGRLLLEFDLLIFSFGQLPLALV [SOAT2]	3.16 ± 0.11	2.81 ± 0.46	–	–
TRKQAAKKVAPLMAKAIRDYKGRF [ELOA2]	3.25 ± 0.37	3.39 ± 0.36	–	–
VDNSCDWALGVCNNSWIRKNSTMV [TRIM43]	2.49 ± 0.34	2.5 ± 0.44	–	–
ESKGCFANTTPSGKSVSSSSSVET [SPATS1]	5.18 ± 0.14	5.19 ± 0.12	–	–
TIQKGSYTFVPWLLSFKRGSALEE [TNFSF13B]	2.11 ± 0.15	2.04 ± 0.22	–	–
SYGPVILVVLVVAVVASSVNSYYS [TOR1AIP2]	3.57 ± 0.3	2.85 ± 0.095	–	–
IVYHPYRPLLQYVQDMGQEDMLLP [CCNC]	2.25 ± 0.57	1.93 ± 0.34	–	–
LGISPSTCSFNPGVIVANMTEWKH [GLT8D2]	2.59 ± 0.3	2.59 ± 0.23	–	–
LQIASDSHQYDRIYCGAGVQKDHE [PCMTD1]	4.24 ± 0.25	4.25 ± 0.28	–	–
GGAEMRTQHWPIRLDGQQEPQPFV [MYORG]	3.86 ± 0.27	3.85 ± 0.13	–	–
KQLALDHFKKTKKMGGKDFSFRYQ [ATL3]	2.86 ± 0.17	3.12 ± 0.19	–	–
ELLGVHPGASTEEVKRAFFSKSKE [DNAJC4]	3.8 ± 0.19	4.08 ± 0.42	–	–
WSRLEEFDVFSPKQDLVPGSPDDS [DLC1]	4.45 ± 0.27	4.87 ± 0.38	–	–
QKEQGLSDNILSPVMNGGVQTWTQ [PDZK1]	2.84 ± 0.5	3.32 ± 0.71	–	–
RQHHHQSSFPGSLPQETNLTLKVC	2.89 ± 0.48	3.34 ± 0.56	–	–
VGLNTIADLWYLFGDLSLSLVTVG [POMT2]	3.71 ± 0.08	3.16 ± 0.79	–	–
LQELLTHDTKDQSPSRAPGLRQRA [HMOX1]	4.33 ± 0.26	4.62 ± 0.33	–	–
HSQFIGYPITLYLEKEREKEISDD [HSP90AB1]	3.82 ± 0.082	3.9 ± 0.26	–	–
